pKd: −log10 of the molar value.
Assays:
[1] = target: Myeloperoxidase (MPO), native, dimeric (human) (UniProt P05164); assay: SPR
[2] = target: 2 CP-dimeric MPO complex (CP-MPO-MPO-CP) (human (endogenous in donor blood plasma) | human) (UniProt P00450); assay: solid-phase enzyme assay

Substance	pKd [1]	koff [1] [s⁻¹]	kon [1] [M⁻¹ s⁻¹]	pKd [2]
Ceruloplasmin proteolyzed by thrombin (FIIa) (from UniProt P00450 501-906) (natural protein)	6.49	0.422	12900	–
Alpha-thrombin (FIIa) (enzyme)	–	–	–	7.34
